First the molecules themselves.
B1: peptide HD2 (from tick evasin EVA4) / CCL18 (biotinylated, synthetic) (parent)
chain 1: EEDDYTAYAPLTCYFT
chain 2: AQVGTNKELCCLVYTSWQIPQKFIVDYSETSPQCPKPGVILLTKRGRQICADPNKKWVQKYISDLKLNA
B2: peptide HD2 (from tick evasin EVA4) / CCL19 (biotinylated, synthetic) (parent)
chain 1: EEDDYTAYAPLTCYFT
chain 2: GTNDAEDCCLSVTQKPIPGYIVRNFHYLLIKDGCRVPAVVFTTLRGRQLCAPPDQPWVERIIQRLQRTSAKMKRRSS
B3: peptide HD2 (from tick evasin EVA4) / CXCL14 (biotinylated, synthetic) (parent)
chain 1: EEDDYTAYAPLTCYFT
chain 2: SKCKCSRKGPKIRYSDVKKLEMKPKYPHCEEKMVIITTKSVSRYRGQEHCLHPKLQSTKRFIKWYNAWNEKRRVYEE
B4: peptide HD2 (from tick evasin EVA4) / CCL17 (biotinylated, synthetic) (parent)
chain 1: EEDDYTAYAPLTCYFT
chain 2: ARGTNVGRECCLEYFKGAIPLRKLKTWYQTSEDCSRDAIVFVTVQGRAICSDPNNKRVKNAVKYLQSLERS

One experiment covers variants of B1. The settings on record: with CCL18 (biotinylated, synthetic); scale: log2.
For the variant chain 1 A9D, the enrichment is -8.43.

For the variant chain 1 D4C, the enrichment is -9.44.

As to chain 1 D3C, the enrichment was -10.1.

As for chain 1 A7C, the enrichment was -10.

In the case of chain 1 P10K, the enrichment is -7.16.

On to chain 1 P10T, for which the enrichment is -8.06.

For chain 1 P10E, the enrichment is -8.1.

Turning to chain 1 P10I, the enrichment is -8.64.

In the case of chain 1 P10H, the enrichment is -8.15.

Consider chain 1 P10R, for which the enrichment is -9.28.

With chain 1 P10S, the enrichment is -9.39.

As for chain 1 P10M, the enrichment was -8.7.

Consider chain 1 P10C, for which the enrichment is -9.92.

chain 1 T16C: the enrichment was -7.88.

Take chain 1 Y14P: the enrichment was -9.05.

For the variant chain 1 C13E, the enrichment was -10.1.

Consider chain 1 C13S, for which the enrichment was -9.93.

In the case of chain 1 C13H, the enrichment is -8.85.

Consider chain 1 C13D, for which the enrichment is -9.35.

With chain 1 C13A, the enrichment is -10.8.

For the variant chain 1 C13K, the enrichment is -9.32.

chain 1 C13G: the enrichment was -10.6.

As to chain 1 Y8K, the enrichment was -6.27.

chain 1 Y8R: the enrichment is -8.38.

Turning to chain 1 Y8E, the enrichment is -6.38.

Regarding chain 1 E1C, the enrichment was -9.95.

As to chain 1 T6C, the enrichment is -11.3.

For chain 1 Y5K, the enrichment was -5.8.

In another experiment the parent is B2. The settings on record: with CCL19 (biotinylated, synthetic); scale: log2.
As to chain 1 C13R, the enrichment is -9.52.

Turning to chain 1 C13E, the enrichment is -8.9.

On to chain 1 C13Q, for which the enrichment was -8.35.

On to chain 1 C13A, for which the enrichment was -9.6.

For chain 1 C13V, the enrichment was -10.3.

As to chain 1 C13H, the enrichment was -7.62.

On to chain 1 C13T, for which the enrichment was -8.2.

As for chain 1 C13M, the enrichment is -8.49.

chain 1 C13G: the enrichment is -9.4.

With chain 1 C13I, the enrichment is -7.15.

Regarding chain 1 C13K, the enrichment is -8.09.

chain 1 C13W: the enrichment was -8.62.

Consider chain 1 C13F, for which the enrichment is -7.6.

chain 1 C13Y: the enrichment was -7.72.

In the case of chain 1 L11D, the enrichment is -8.06.

In the case of chain 1 L11E, the enrichment is -7.14.

On to chain 1 L11N, for which the enrichment was -7.42.

As to chain 1 L11G, the enrichment was -9.22.

Take chain 1 Y14Q: the enrichment is -7.02.

As to chain 1 Y14C, the enrichment is -7.29.

chain 1 Y14T: the enrichment was -7.91.

As for chain 1 Y14N, the enrichment is -5.87.

On to chain 1 Y14S, for which the enrichment was -8.64.

For the variant chain 1 Y14E, the enrichment is -7.73.

With chain 1 Y14D, the enrichment is -6.5.

With chain 1 Y5R, the enrichment is -6.02.

For chain 1 Y5P, the enrichment was -5.7.

In the case of chain 1 Y5G, the enrichment was -6.08.

Consider chain 1 Y5Q, for which the enrichment is -4.33.

With chain 1 Y5V, the enrichment is -8.24.

Regarding chain 1 Y5A, the enrichment is -6.04.

For chain 1 Y5E, the enrichment is -2.46.

Take chain 1 Y5K: the enrichment is -4.57.

Turning to chain 1 T16P, the enrichment was -6.44.

Regarding chain 1 A9G, the enrichment was -7.67.

chain 1 A9D: the enrichment was -7.2.

Consider chain 1 A9K, for which the enrichment was -5.6.

Consider chain 1 A9H, for which the enrichment was -7.18.

As for chain 1 A9Q, the enrichment was -6.19.

Consider chain 1 E1C, for which the enrichment was -8.72.

With chain 1 E1Q, the enrichment was -3.57.

As to chain 1 A7C, the enrichment is -8.81.

In the case of chain 1 T12G, the enrichment is -9.27.

As for chain 1 T12D, the enrichment was -7.63.

chain 1 T12Q: the enrichment was -6.6.

With chain 1 F15I, the enrichment is -5.23.

With chain 1 F15N, the enrichment is -5.7.

Regarding chain 1 D3T, the enrichment was -6.58.

As for chain 1 D3Q, the enrichment was -3.96.

On to chain 1 D3R, for which the enrichment is -6.43.

Turning to chain 1 D3H, the enrichment is -5.94.

chain 1 D3K: the enrichment was -4.33.

For the variant chain 1 D3A, the enrichment is -6.

On to chain 1 D3C, for which the enrichment was -8.87.

In the case of chain 1 D3I, the enrichment is -8.83.

With chain 1 D3M, the enrichment is -6.81.

As to chain 1 E2K, the enrichment is -4.12.

Take chain 1 E2H: the enrichment was -6.61.

For the variant chain 1 E2Q, the enrichment is -3.87.

For the variant chain 1 E2P, the enrichment was -6.02.

Regarding chain 1 Y8A, the enrichment was -7.75.

For the variant chain 1 Y8I, the enrichment was -8.35.

Consider chain 1 Y8C, for which the enrichment is -8.65.

For the variant chain 1 Y8K, the enrichment is -5.04.

Regarding chain 1 Y8N, the enrichment was -7.1.

Consider chain 1 Y8T, for which the enrichment was -7.46.

As for chain 1 Y8P, the enrichment is -6.84.

As for chain 1 Y8E, the enrichment is -5.16.

Consider chain 1 Y8Q, for which the enrichment was -5.33.

On to chain 1 Y8D, for which the enrichment is -6.51.

As to chain 1 Y8G, the enrichment was -7.68.

In the case of chain 1 Y8R, the enrichment is -7.16.

chain 1 D4A: the enrichment was -7.05.

Consider chain 1 D4H, for which the enrichment was -6.74.

Take chain 1 D4K: the enrichment is -5.85.

For chain 1 D4E, the enrichment is -4.92.

With chain 1 D4R, the enrichment was -6.06.

Take chain 1 D4T: the enrichment was -6.85.

Take chain 1 D4N: the enrichment is -6.94.

For the variant chain 1 D4G, the enrichment was -5.19.

With chain 1 D4P, the enrichment was -6.04.

chain 1 D4C: the enrichment was -8.21.

chain 1 P10N: the enrichment is -6.99.

As for chain 1 P10R, the enrichment is -8.05.

Regarding chain 1 P10E, the enrichment was -6.87.

With chain 1 P10K, the enrichment was -5.94.

Take chain 1 P10I: the enrichment is -7.41.

As to chain 1 P10A, the enrichment is -7.68.

With chain 1 P10S, the enrichment is -8.17.

As to chain 1 P10D, the enrichment was -7.38.

On to chain 1 P10C, for which the enrichment is -8.69.

Regarding chain 1 P10Q, the enrichment is -5.36.

On to chain 1 P10H, for which the enrichment is -6.93.

Variants of B3 are the subject of a further experiment. The settings on record: with CXCL14 (biotinylated, synthetic); scale: log2.
As to chain 1 Y5V, the enrichment is -7.53.

For chain 1 Y14F, the enrichment was -6.35.

Regarding chain 1 Y14N, the enrichment was -5.16.

As to chain 1 Y14M, the enrichment was -7.23.

Regarding chain 1 Y14G, the enrichment is -8.76.

Regarding chain 1 Y14S, the enrichment is -7.93.

Consider chain 1 Y14I, for which the enrichment is -5.53.

Regarding chain 1 Y14P, the enrichment was -7.11.

Consider chain 1 Y14T, for which the enrichment is -7.2.

For chain 1 Y14R, the enrichment was -8.35.

As for chain 1 Y14D, the enrichment is -5.79.

Take chain 1 Y14K: the enrichment was -6.43.

For chain 1 Y8K, the enrichment was -4.33.

As for chain 1 Y8E, the enrichment is -4.45.

In the case of chain 1 Y8T, the enrichment was -6.74.

Regarding chain 1 Y8A, the enrichment is -7.04.

Take chain 1 Y8S: the enrichment was -8.01.

Turning to chain 1 Y8H, the enrichment is -5.83.

chain 1 Y8G: the enrichment was -6.97.

Consider chain 1 Y8R, for which the enrichment is -6.45.

Consider chain 1 Y8Q, for which the enrichment is -4.62.

For chain 1 Y8C, the enrichment is -7.94.

The variants in a further experiment derive from B4. The settings on record: with CCL17 (biotinylated, synthetic); scale: log2.
Turning to chain 1 Y5T, the enrichment is -7.77.

With chain 1 Y5K, the enrichment is -5.7.

As to chain 1 Y5R, the enrichment is -7.15.

In the case of chain 1 Y5N, the enrichment is -7.81.

chain 1 Y5E: the enrichment is -3.59.

chain 1 Y5Q: the enrichment is -5.46.

Regarding chain 1 Y14D, the enrichment is -7.63.

With chain 1 Y14E, the enrichment is -8.87.

Take chain 1 Y14N: the enrichment is -7.

For the variant chain 1 Y14R, the enrichment is -10.2.

As for chain 1 P10R, the enrichment is -9.18.

chain 1 P10V: the enrichment was -10.5.

As to chain 1 P10I, the enrichment was -8.54.

Take chain 1 P10N: the enrichment is -8.12.

Consider chain 1 P10H, for which the enrichment is -8.06.

For the variant chain 1 P10K, the enrichment is -7.07.

With chain 1 P10C, the enrichment is -9.82.

chain 1 P10S: the enrichment was -9.3.

Take chain 1 P10M: the enrichment was -8.6.

In the case of chain 1 D4C, the enrichment was -9.34.

For chain 1 A7C, the enrichment is -9.94.

With chain 1 T6C, the enrichment is -11.2.

Regarding chain 1 D3C, the enrichment is -10.

chain 1 E1C: the enrichment is -9.85.

(Values after publication PMC11969024, “Development of chemokine network inhibitors using combinatorial saturation mutagenesis” (Communications Biology, 2025).)
